Laboratory results: IntAct's records for PubMed 25783203

B1: Vacuolar protein sorting-associated protein 33A (Homo sapiens), Q96AX1 (parent)
chain: MAAHLSYGRVNLNVLREAVRRELREFLDKCAGSKAIVWDEYLTGPFGLIAQYSLLKEHEVEKMFTLKGNRLPAADVKNIIFFVRPRLELMDIIAENVLSEDRRGPTRDFHILFVPRRSLLCEQRLKDLGVLGSFIHREEYSLDLIPFDGDLLSMESEGAFKECYLEGDQTSLYHAAKGLMTLQALYGTIPQIFGKGECARQVANMMIRMKREFTGSQNSIFPVFDNLLLLDRNVDLLTPLATQLTYEGLIDEIYGIQNSYVKLPPEKFAPKKQGDGGKDLPTEAKKLQLNSAEELYAEIRDKNFNAVGSVLSKKAKIISAAFEERHNAKTVGEIKQFVSQLPHMQAARGSLANHTSIAELIKDVTTSEDFFDKLTVEQEFMSGIDTDKVNNYIEDCIAQKHSLIKVLRLVCLQSVCNSGLKQKVLDYYKREILQTYGYEHILTLHNLEKAGLLKPQTGGRNNYPTIRKTLRLWMDDVNEQNPTDISYVYSGYAPLSVRLAQLLSRPGWRSIEEVLRILPGPHFEERQPLPTGLQKKRQPGENRVTLIFFLGGVTFAEIAALRFLSQLEDGGTEYVIATTKLMNGTSWIEALMEKPF
partner: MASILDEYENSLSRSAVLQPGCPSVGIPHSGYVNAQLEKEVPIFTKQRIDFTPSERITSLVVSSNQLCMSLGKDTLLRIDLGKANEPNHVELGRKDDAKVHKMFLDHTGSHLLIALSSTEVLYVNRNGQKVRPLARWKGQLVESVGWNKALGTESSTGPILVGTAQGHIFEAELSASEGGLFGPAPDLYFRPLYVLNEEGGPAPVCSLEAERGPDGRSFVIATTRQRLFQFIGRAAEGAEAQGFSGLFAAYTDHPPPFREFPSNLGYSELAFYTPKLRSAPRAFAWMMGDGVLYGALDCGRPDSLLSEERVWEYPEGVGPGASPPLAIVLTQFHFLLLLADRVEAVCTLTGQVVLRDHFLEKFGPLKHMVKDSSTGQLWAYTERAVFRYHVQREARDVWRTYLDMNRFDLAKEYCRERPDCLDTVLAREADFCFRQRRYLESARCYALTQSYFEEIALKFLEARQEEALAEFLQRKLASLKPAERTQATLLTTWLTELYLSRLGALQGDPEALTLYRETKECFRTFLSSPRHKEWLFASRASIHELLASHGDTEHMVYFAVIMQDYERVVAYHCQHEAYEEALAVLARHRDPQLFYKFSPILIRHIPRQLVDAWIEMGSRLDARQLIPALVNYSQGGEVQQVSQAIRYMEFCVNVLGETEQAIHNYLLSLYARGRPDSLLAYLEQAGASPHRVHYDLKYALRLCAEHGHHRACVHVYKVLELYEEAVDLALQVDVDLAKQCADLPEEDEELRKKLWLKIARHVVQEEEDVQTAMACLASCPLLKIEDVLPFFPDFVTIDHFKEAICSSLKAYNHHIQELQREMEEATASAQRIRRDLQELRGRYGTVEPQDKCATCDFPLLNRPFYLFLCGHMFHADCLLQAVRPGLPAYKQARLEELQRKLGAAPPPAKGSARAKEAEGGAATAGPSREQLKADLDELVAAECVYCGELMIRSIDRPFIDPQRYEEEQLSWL

Variants of: B1
Details: with vps18_human VPS18, Q9P253

Effect of a mutation on the interaction, disrupting interaction:
MAAHLSYGRVNLNVLREAVRRELREFLDKCAGSKAIVWDEYLTGPFGLIAQYSLLKEHEVEKMFTLKGNRLPAADVKNIIFFVRPRLELMDIIAENVLSEDRRGPTRDFHILFVPRRSLLCEQRLKDLGVLGSFIHREEYSLDLIPFDGDLLSMESEGAFKECYLEGDQTSLYHAAKGLMTLQALYGTIPQIFGKGECARQVANMMIRMKREFTGSQNSIFPVFDNLLLLDRNVDLLTPLATQLTYEGLIDEIYGIQNSYVKLPPEKFAPKKQGDGGKDLPTEAKKLQLNSAEELYAEIRDKNFNAVGSVLSKKAKIISAAFEERHNAKTVGEIKQFVSQLPHMQAARGSLANHTSIAELIKDVTTSEDFFDKLTVEQEFMSGIDTDKVNNYIEDCIAQKHSLIKVLRLVCLQSVCNSGLKQKVLDYYDREILQTYGYEHKLTLHNLEKAGLLKPQTGGRNNYPTIRKTLRLWMDDVNEQNPTDISYVYSGYAPLSVRLAQLLSRPGWRSIEEVLRILPGPHFEERQPLPTGLQKKRQPGENRVTLIFFLGGVTFAEIAALRFLSQLEDGGTEYVIATTKLMNGTSWIEALMEKPF [K429D;I441K]
MAAHLSYGRVNLNVLREAVRRELREFLDKCAGSKAIVWDEYLTGPFGLIAQYSLLKEHEVEKMFTLKGNRLPAADVKNIIFFVRPRLELMDIIAENVLSEDRRGPTRDFHILFVPRRSLLCEQRLKDLGVLGSFIHREEYSLDLIPFDGDLLSMESEGAFKECYLEGDQTSLYHAAKGLMTLQALYGTIPQIFGKGECARQVANMMIRMKREFTGSQNSIFPVFDNLLLLDRNVDLLTPLATQLTYEGLIDEIYGIQNSYVKLPPEKFAPKKQGDGGKDLPTEAKKLQLNSAEELYAEIRDKNFNAVGSVLSKKAKIISAAFEERHNAKTVGEIKQFVSQLPHMQAARGSLANHTSIAELIKDVTTSEDFFDKLTVEQEFMSGIDTDKVNNYIEDCIAQKHSLIKVLRLVCLQSVCNSGLKQKVLDYYKREILQTYGDEHKLTLHNLEKAGLLKPQTGGRNNYPTIRKTLRLWMDDVNEQNPTDISYVYSGYAPLSVRLAQLLSRPGWRSIEEVLRILPGPHFEERQPLPTGLQKKRQPGENRVTLIFFLGGVTFAEIAALRFLSQLEDGGTEYVIATTKLMNGTSWIEALMEKPF [Y438D;I441K]
MAAHLSYGRVNLNVLREAVRRELREFLDKCAGSKAIVWDEYLTGPFGLIAQYSLLKEHEVEKMFTLKGNRLPAADVKNIIFFVRPRLELMDIIAENVLSEDRRGPTRDFHILFVPRRSLLCEQRLKDLGVLGSFIHREEYSLDLIPFDGDLLSMESEGAFKECYLEGDQTSLYHAAKGLMTLQALYGTIPQIFGKGECARQVANMMIRMKREFTGSQNSIFPVFDNLLLLDRNVDLLTPLATQLTYEGLIDEIYGIQNSYVKLPPEKFAPKKQGDGGKDLPTEAKKLQLNSAEELYAEIRDKNFNAVGSVLSKKAKIISAAFEERHNAKTVGEIKQFVSQLPHMQAARGSLANHTSIAELIKDVTTSEDFFDKLTVEQEFMSGIDTDKVNNYIEDCIAQKHSLIKVLRLVCLQSVCNSGLKQKVLDYYDREILQTYGDEHILTLHNLEKAGLLKPQTGGRNNYPTIRKTLRLWMDDVNEQNPTDISYVYSGYAPLSVRLAQLLSRPGWRSIEEVLRILPGPHFEERQPLPTGLQKKRQPGENRVTLIFFLGGVTFAEIAALRFLSQLEDGGTEYVIATTKLMNGTSWIEALMEKPF [K429D;Y438D]
